According to patent publication US20250352661A1 (MYTHIC THERAPEUTICS, published 2025):
Positions count from the first letter of the chain named. In names and notes the source's numbering stands.

T1: Human LRRC15 Protein, His Tag (Acro Biosystems) (human, UniProt Q8TF66 22-538, limits assumed)
T1 sequence (looked up): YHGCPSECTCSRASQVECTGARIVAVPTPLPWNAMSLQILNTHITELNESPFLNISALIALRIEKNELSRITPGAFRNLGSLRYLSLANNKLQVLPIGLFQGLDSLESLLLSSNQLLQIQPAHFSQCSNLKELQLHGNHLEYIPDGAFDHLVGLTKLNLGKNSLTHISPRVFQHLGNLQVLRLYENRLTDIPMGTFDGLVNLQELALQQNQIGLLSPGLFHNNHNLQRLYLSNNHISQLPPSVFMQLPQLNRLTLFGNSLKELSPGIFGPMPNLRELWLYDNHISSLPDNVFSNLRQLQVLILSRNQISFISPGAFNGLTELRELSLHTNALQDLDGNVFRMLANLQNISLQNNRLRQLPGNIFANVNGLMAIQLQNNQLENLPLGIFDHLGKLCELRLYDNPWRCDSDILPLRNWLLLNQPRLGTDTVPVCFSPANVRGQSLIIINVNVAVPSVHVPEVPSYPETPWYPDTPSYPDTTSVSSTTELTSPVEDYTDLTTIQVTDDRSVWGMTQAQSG

T2: Human LRRC15 Protein, His Tag (Acro Biosystems) (human, UniProt Q8TF66 22-538, limits assumed)
T2 construct: Bought protein with His tag
T2 sequence (looked up): T1 sequence (looked up)

T3: LRRC15 on LRRC15 positive cell lines SAOS2 and G292 (UniProt Q8TF66 22-581, limits assumed)
T3 construct: whole, on cells
T3 sequence (looked up): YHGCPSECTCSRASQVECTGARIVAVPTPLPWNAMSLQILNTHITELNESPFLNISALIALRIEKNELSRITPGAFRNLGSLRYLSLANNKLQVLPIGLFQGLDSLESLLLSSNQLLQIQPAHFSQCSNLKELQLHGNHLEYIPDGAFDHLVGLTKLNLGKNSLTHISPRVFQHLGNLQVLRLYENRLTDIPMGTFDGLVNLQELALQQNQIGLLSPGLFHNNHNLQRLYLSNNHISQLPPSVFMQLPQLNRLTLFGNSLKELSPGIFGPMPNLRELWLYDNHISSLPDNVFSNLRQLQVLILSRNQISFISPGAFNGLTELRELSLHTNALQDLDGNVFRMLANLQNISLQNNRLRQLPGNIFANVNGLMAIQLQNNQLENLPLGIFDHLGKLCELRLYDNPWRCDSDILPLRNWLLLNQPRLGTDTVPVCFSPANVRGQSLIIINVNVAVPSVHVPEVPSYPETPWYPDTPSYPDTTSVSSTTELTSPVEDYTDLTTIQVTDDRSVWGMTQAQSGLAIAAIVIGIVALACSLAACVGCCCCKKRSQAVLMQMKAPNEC

B1: MYT6111 (antibody, V domains shown)
VH: QEQLEESGGDLVKPGASLTLTCTASGLDFRRTNYICWVRQAPGKGLEWIGCIYIADVVHYYASWAKGRFTFSKTSSTTVTLQMTSLTAADTATYFCARGHDGGFVYGMDLWGPGTLVTVSS
VL: DVVMTQTPASVSEPVGGTVTIKCQASQSIGNYLSWYQQKPGQRPKRLIYSASTLPSGVPSRFKGAGSGTEFTLTISDLESADAATYYCQNNYWLAGYGHPFGGGTEVVVK
notes: chimeric rabbit 15G7 variant (rabbit variable domains, human constant regions); also called 15G7 VH A100H
B2: MYT6112 (antibody, V domains shown)
VH: B1 VH with H100A, D101H
VL: B1 VL
notes: chimeric rabbit 15G7 variant (rabbit variable domains, human constant regions); also called 15G7 VH D101H
B3: MYT6113 (antibody, V domains shown)
VH: B1 VH with H100A, G102H
VL: B1 VL
notes: chimeric rabbit 15G7 variant (rabbit variable domains, human constant regions); also called 15G7 VH G102H
B4: MYT6114 (antibody, V domains shown)
VH: B1 VH with H100A, G103H
VL: B1 VL
notes: chimeric rabbit 15G7 variant (rabbit variable domains, human constant regions); also called 15G7 VH G103H
B5: MYT6115 (antibody, V domains shown)
VH: B1 VH with H100A, F104H
VL: B1 VL
notes: chimeric rabbit 15G7 variant (rabbit variable domains, human constant regions); also called 15G7 VH F104H
B6: MYT6116 (antibody, V domains shown)
VH: B1 VH with H100A, V105H
VL: B1 VL
notes: chimeric rabbit 15G7 variant (rabbit variable domains, human constant regions); also called 15G7 VH V105H
B7: MYT6117 (antibody, V domains shown)
VH: B1 VH with H100A, Y106H
VL: B1 VL
notes: chimeric rabbit 15G7 variant (rabbit variable domains, human constant regions); also called 15G7 VH Y106H
B8: MYT6118 (antibody, V domains shown)
VH: B1 VH with H100A, G107H
VL: B1 VL
notes: chimeric rabbit 15G7 variant (rabbit variable domains, human constant regions); also called 15G7 VH G107H
B9: MYT6119 (antibody, V domains shown)
VH: B1 VH with H100A, M108H
VL: B1 VL
notes: chimeric rabbit 15G7 variant (rabbit variable domains, human constant regions); also called 15G7 VH M108H
B10: MYT6120 (antibody, V domains shown)
VH: B1 VH with H100A, D109H
VL: B1 VL
notes: chimeric rabbit 15G7 variant (rabbit variable domains, human constant regions); also called 15G7 VH D109H
B11: MYT6121 (antibody, V domains shown)
VH: B1 VH with H100A, L110H
VL: B1 VL
notes: chimeric rabbit 15G7 variant (rabbit variable domains, human constant regions); also called 15G7 VH L110H
B12: MYT7917 (antibody, V domains shown)
VH: QQQLVESGGGLVKPGASLTLTCKASGFSFSGSYWICWVRQAPGKGLEWIGCINGGSLDITYYASWAKGRFTISKASSTTVTLQKTSLTAADTATYFCASDTSYTHYGNFYFNLWGPGTLVTVSS
VL: AQVLTQTASPVSAAVGGTVTINCQSSQSVLNNNWLAWYQQKPGQPPKLLIYDASSLASGVPSRFKGSGSGTQFTLTISDLESDDAATYYCQGEFSCGSADCNAFGGGTEVVVKG
notes: rabbit 24D9 VH A105H; chimeric, human constant regions
B13: MYT7918 (antibody, V domains shown)
VH: B12 VH with H105A, Y106H
VL: B12 VL
notes: rabbit 24D9 VH Y106H; chimeric, human constant regions
B14: MYT7919 (antibody, V domains shown)
VH: B12 VH with H105A, G107H
VL: B12 VL
notes: rabbit 24D9 VH G107H; chimeric, human constant regions
B15: MYT7920 (antibody, V domains shown)
VH: B12 VH with H105A, N108H
VL: B12 VL
notes: rabbit 24D9 VH N108H; chimeric, human constant regions
B16: MYT7921 (antibody, V domains shown)
VH: B12 VH with H105A, F109H
VL: B12 VL
notes: rabbit 24D9 VH F109H; chimeric, human constant regions
B17: MYT7922 (antibody, V domains shown)
VH: B12 VH with H105A, Y110H
VL: B12 VL
notes: rabbit 24D9 VH Y110H; chimeric, human constant regions
B18: MYT7923 (antibody, V domains shown)
VH: B12 VH with H105A, F111H
VL: B12 VL
notes: rabbit 24D9 VH F111H; chimeric, human constant regions
B19: MYT7924 (antibody, V domains shown)
VH: B12 VH with H105A, N112H
VL: B12 VL
notes: rabbit 24D9 VH N112H; chimeric, human constant regions
B20: MYT7925 (antibody, V domains shown)
VH: B12 VH with H105A, L113H
VL: B12 VL
notes: rabbit 24D9 VH L113H; chimeric, human constant regions
B21: MYT9776 (antibody, V domains shown)
VH: EVQLVESGGGLVQPGGSLRLSCTASGFSFSGHYWICWVRQAPGKGLEWVGCIHGGSHDITYYASWAKGRFTISRDTSKNTVYLQKTSLRAEDTAVYYCASDTSYTAYGNFYFNLWGQGTLVTVSS
VL: EIVMTQSPSPLSASVGDRVIITCQSSQSVLNNNWLAWYQQKPGKAPKLLIYDASSLASGVPSRFSGSGSGAEFTLTISSLQPDDFATYYCQGEFSCGSADCNAFGQGTKLEIK
notes: LC EIK); also called hu24D9 HC Dev Combos, +LC FR4 EIK
B22: MYT8094 (antibody, IgG1, V domains shown)
VH: EVQLVESGGGLVQPGGSLRLSCTASGFSFSSSHWICWVRQAPGKGLEWVGCIYAGSIGSTYYASWAKGRFTISRDTSKNTVYLQMNSLRAEDTAVYYCARAPNDIYNYYFNLWGQGTLVTVSS
VL: EIVMTQSPSTLSASVGDRVIITCQASENIYNYLAWYQQKPGKAPKLLIYYASTLASGVPSRFSGSGSGAEFTLTISSLQPDDFATYYCQSGYVSKSSTFGQGTKLTVL
notes: Humanized 29F1; also called hu29F1 Parental; hu29F1
B23: MYT9521 (antibody, V domains shown)
VH: B22 VH
VL: B22 VL with T53D
notes: LC descriptor T66D; also called hu29F1 LC Asp Var
B24: MYT9523 (antibody, V domains shown)
VH: B22 VH
VL: B22 VL with A55D
notes: LC descriptor A68D; also called hu29F1 LC Asp Var
B25: MYT9731 (antibody, V domains shown)
VH: B22 VH
VL: B22 VL with N28E
notes: LC descriptor N28E; also called hu29F1 LC Glu Var

How the values were obtained:
[1] = target: T1, Human LRRC15 Protein, His Tag (Acro …); assay: BLI; dissociation pH 7.4 black, pH 5.4 grey [2/2); D00007 FIG. 1E (2/2]
Description: For each individual plot, antigen binding proteins were captured on anti-human Fc biosensors and associated with LRRC15 at pH 7.4. Dissociation was at pH 7.4 (black) or pH 5.4 (grey). Major X-axis ticks=100 seconds, with left dashed vertical line=0 seconds. Major Y-axis ticks=0.5 nm and octet plots are shown MYT5712 and MYT6080-MYT6121.
Multiple LRRC15-binding monoclonal antibodies have been described in the literature and can be used as a template for engineering pH-dependent binding. We selected discovery RabMAb clone 15G7 (rabbit VH SEQ ID NO: 378, rabbit VL SEQ ID NO: 451; humanized VH SEQ ID NO: 382, humanized VL SEQ ID NO: 455) as a LRRC15-binding monoclonal antibody for pH-engineering via histidine scanning. […] To generate pH-dependent sequence variants, individual amino acid residues within the heavy chain CDRs were systematically substituted with a histidine (or alanine if H was already present in a given position; e.g., MYT6099), one at a time (rabbit, MYT6080-6121). Desirable mutations were transferred to a humanized framework (humanized, MYT 8387-8411). After allowing for four days of protein expression, cell culture supernatants were collected, quantified by SDS-PAGE analysis, and the pH dependence of the variant was evaluated using biolayer interferometry (BLI) on an Octet RED 96e instrument. Briefly, cell culture supernatants were diluted based on qualitative expression level of the variant determined by visual examination of SDS-PAGE gels, 5 μL of cell culture supernatant was diluted into 195 μL of 1×PBST, pH 7.4 for high expressors, 25 μL of cell culture supernatant was diluted into 175 μL of 1×PBST, pH 7.4 for medium expressors and 100 μL of cell culture supernatant was diluted into 100 μL of 1×PBST, pH 7.4 for low expressors for loading onto the sensor tips.

[2] = target: T2, Human LRRC15 Protein, His Tag (Acro …); assay: BLI; dissociation pH 7.4 black, pH 5.4 grey [2/2); D00014 FIG. 2B (2/2]
[3] = target: T3, LRRC15 on LRRC15 positive cell lines …; assay: cell binding on SAOS2 cells (LRRC15 positive), pH 7.4; set-up: unit not given here

Row | Binder | binding result [1] | binding result [2] | also measured
1 | B1 | binds | – | –
2 | B2 | binds | – | –
3 | B3 | binds | – | –
4 | B4 | binds | – | –
5 | B5 | binds | – | –
6 | B6 | binds | – | –
7 | B7 | binds | – | –
8 | B8 | no binding (tested: 50 nM LRRC15) | – | –
9 | B9 | binds | – | –
10 | B10 | binds | – | –
11 | B11 | binds | – | –
12 | B12 | – | binds | –
13 | B13 | – | binds | –
14 | B14 | – | no binding (tested: 50 nM LRRC15) | –
15 | B15 | – | no binding (tested: 50 nM LRRC15) | –
16 | B16 | – | no binding (tested: 50 nM LRRC15) | –
17 | B17 | – | binds | –
18 | B18 | – | binds | –
19 | B19 | – | binds | –
20 | B20 | – | binds | –
21 | B21 | – | – | Affinity [3]: 7.32
22 | B22 | – | – | Affinity [3]: 1.71
23 | B23 | – | – | Affinity [3]: 1.58
24 | B24 | – | – | Affinity [3]: 0.817
25 | B25 | – | – | Affinity [3]: 0.352
